Source: patent US20090099826A1 (published 2009)

T1: BIR3 domain of XIAP (residues 252-350), wild type
T1 chain: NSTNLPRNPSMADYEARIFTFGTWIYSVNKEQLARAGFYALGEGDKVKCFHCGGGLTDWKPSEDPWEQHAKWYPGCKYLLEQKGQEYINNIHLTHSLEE


Key:
[1] = target: XIAP-BIR3 point mutant G326E
[2] = target: XIAP-BIR3 point mutant P325G
[3] = target: XIAP-BIR3 point mutant H343A
[4] = target: XIAP-BIR3 point mutant L344A
[5] = target: T1, BIR3 domain of XIAP (residues 252-350), …
[6] = target: the molecule itself; assay: sedimentation equilibrium, analytical ultracentrifugation (self-association)
Experimental: To accurately determine the basal state of caspase-9 in solution, the molecular weight of caspase-9 was examined by sedimentation equilibrium analysis using analytical ultra-centrifugation (Table 2). […] In addition, this analysis confirms that the XIAP-BIR3 domain forms a stable hetero-dimer with the caspase-9 monomer (Table 2).
Analytical ultracentrifugation. Protein samples were prepared in 10 mM Tris-HCl, pH 8.0, 100 mM NaCl, and 2 mm DTT. All sedimentation equilibrium experiments were carried out at 4° C. using a Beckman Optima XL-A analytical ultracentrifuge equipped with an An60 Ti rotor and using six-channel, 12 mm path length, charcoal-filled Epon centerpieces and quartz windows. Data were collected at four rotor speeds (10,000, 15,000, 20,000, and 25,000 rpm) and represent the average of twenty scans using a scan step-size of 0.001 cm. Partial specific volumes and solution density were calculate using the Sednterp program. Data were analyzed using the WinNONOLIN program from the Analytical Ultracentrifugation Facility at the University of Connecticut (Storrs, Conn.).

| Protein | cleavage of procaspase-3 (C163A) by caspase-9, SDS-PAGE [1] | cleavage of procaspase-3 (C163A) by caspase-9, SDS-PAGE [2] | cleavage of procaspase-3 (C163A) by caspase-9, SDS-PAGE [3] | cleavage of procaspase-3 (C163A) by caspase-9, SDS-PAGE [4] | cleavage of procaspase-3 (C163A) by caspase-9, SDS-PAGE [5] | binding result [6] |
| --- | --- | --- | --- | --- | --- | --- |
| caspase-9, wild-type, processed catalytic domain (residues 139-315 and 316-416) (protein) chain 1: VGALESLRGNADLAYILSMEPCGHCLIINNVNFCRESGLRTRTGSNIDCEKLRRRFSSLHFMVEVKGDLTAKKMVLALLELAQQDHGALDCCVVVILSHGCQASHLQFPGAVYGTDGCPVSVEKIVNIFNGTSCPSLGGKPKLFFIQACGGEQKDHGFEVASTSPEDESPGSNPEPD chain 2: ATPFQEGLRTFDQLDAISSLPTPSDIFVSYSTFPGFVSWRDPKSGSWYVETLDDIFEQWAHSEDLQSLLLRVANAVSVKGIYKQMPGCFNFLRKKLFFKTS | led to loss of this inhibition as judged by the cleavage of procaspase-3 precursor | led to loss of this inhibition as judged by the cleavage of procaspase-3 precursor | led to loss of this inhibition as judged by the cleavage of procaspase-3 precursor | led to loss of this inhibition as judged by the cleavage of procaspase-3 precursor | incubation with the WT BIR3 protein (residues 252-350) resulted in the efficient inhibition of the activity (lane 2) |  |
| Procaspase-9 zymogen (residues 139-416) (enzyme, mammalian, UniProt P55211 139-416, looked up, range 139-416; Used here for self-association; also called unprocessed procaspase-9 zymogen) VGALESLRGNADLAYILSMEPCGHCLIINNVNFCRESGLRTRTGSNIDCEKLRRRFSSLHFMVEVKGDLTAKKMVLALLELAQQDHGALDCCVVVILSHGCQASHLQFPGAVYGTDGCPVSVEKIVNIFNGTSCPSLGGKPKLFFIQACGGEQKDHGFEVASTSPEDESPGSNPEPDATPFQEGLRTFDQLDAISSLPTPSDIFVSYSTFPGFVSWRDPKSGSWYVETLDDIFEQWAHSEDLQSLLLRVANAVSVKGIYKQMPGCFNFLRKKLFFKTS |  |  |  |  |  | no binding (tested: 20 µM) |
